The target in experiment [1] is HLA-B*27:05. The experiment can be described thus: IEDB peptide-MHC binding, purified MHC/competitive/fluorescence; filed as Kd, often an IC50 or EC50 that approximates it; ≥ and ≤ were set here for values at or beyond the usual limits of such assays.
Experiment [2] concerns the target HLA-A*26:01. The experiment can be described thus: IEDB peptide-MHC binding, purified MHC/direct/fluorescence; filed as Kd, often an IC50 or EC50 that approximates it; ≥ and ≤ were set here for values at or beyond the usual limits of such assays.
Another experiment has as its target HLA-A*26:02. The experiment is described as above.
Experiment [3] deals with HLA-B*40:01. The experiment can be described thus: IEDB peptide-MHC binding, purified MHC/competitive/fluorescence; filed as Kd, often an IC50 or EC50 that approximates it; ≥ and ≤ were set here for values at or beyond the usual limits of such assays.
In the next experiment the target is HLA-C*07:02. Put plainly: IEDB peptide-MHC binding, purified MHC/direct/fluorescence; filed as Kd, often an IC50 or EC50 that approximates it; ≥ and ≤ were set here for values at or beyond the usual limits of such assays.
The target in experiment [4] is HLA-B*39:01. The experiment is described as above.
Experiment [5] concerns the target HLA-A*31:01. The description is as above.
The target of a further experiment is HLA-B*07:02. The experiment is described as above.
The target in another experiment is HLA-A*01:01. The experiment is described as above.
The target in a further experiment is HLA-B*15:01. Described as above.
Another experiment deals with HLA-B*15:09. Described as above.
The target of a further experiment is HLA-B*44:02. The description is as above.
The next experiment addresses HLA-B*57:01. Described as above. The note with it: source organism: Lassa virus Josiah.
The next experiment has as its target HLA-A*02:01. The experiment is described as above.
The target in another experiment is HLA-B*48:01. Described as above. The note with it: source organism: Lassa virus Josiah.
In experiment [6] the target is HLA-B*40:01. The experiment is described as above.
For experiment [7], the target named is HLA-B*27:05. The description is as above.
The next experiment deals with HLA-B*46:01. The experiment is described as above. To be noted: source organism: Lassa virus Josiah.
For experiment [8], the target named is HLA-A*03:01. The experiment is described as above.
The next experiment has as its target HLA-A*69:01. The description is as above.
Another experiment addresses HLA-B*58:01. Described as above.
For experiment [9], the target named is HLA-A*24:02. The experiment can be described thus: IEDB peptide-MHC binding, purified MHC/competitive/fluorescence; filed as Kd, often an IC50 or EC50 that approximates it; ≥ and ≤ were set here for values at or beyond the usual limits of such assays.
For the next experiment, the target named is HLA-C*14:02. The experiment can be described thus: IEDB peptide-MHC binding, purified MHC/direct/fluorescence; filed as Kd, often an IC50 or EC50 that approximates it; ≥ and ≤ were set here for values at or beyond the usual limits of such assays.
In the next experiment the target is HLA-C*06:02. Described as above. The note with it: source organism: Toxoplasma gondii.
The target of another experiment is HLA-C*15:02. The description is as above.
A further experiment concerns the target HLA-B*27:03. Put plainly: IEDB peptide-MHC binding, purified MHC/competitive/fluorescence; filed as Kd, often an IC50 or EC50 that approximates it; ≥ and ≤ were set here for values at or beyond the usual limits of such assays. The note with it: source organism: Toxoplasma gondii.
For another experiment, the target named is HLA-A*02:19. The description is as above. The note with it: source organism: Toxoplasma gondii.
The target in experiment [10] is HLA-B*39:01. Described as above. To be noted: source organism: Toxoplasma gondii.
For experiment [11], the target named is HLA-A*31:01. The description is as above. The note with it: source organism: Toxoplasma gondii.
A further experiment concerns the target HLA-B*18:01. The description is as above. The note with it: source organism: Toxoplasma gondii.
The target in a further experiment is HLA-A*02:12. Described as above. The note with it: source organism: Toxoplasma gondii.
The target of experiment [12] is HLA-A*26:01. The experiment is described as above. The note with it: source organism: Toxoplasma gondii.
Experiment [13] has as its target HLA-A*03:01. The description is as above. The note with it: source organism: Toxoplasma gondii.
The target of another experiment is HLA-B*08:01. Put plainly: IEDB peptide-MHC binding, purified MHC/direct/fluorescence; filed as Kd, often an IC50 or EC50 that approximates it; ≥ and ≤ were set here for values at or beyond the usual limits of such assays. The note with it: source organism: Rickettsia sibirica 246.
The target in a further experiment is HLA-B*08:02. Described as above. The note with it: source organism: Rickettsia sibirica 246.
In experiment [14] the target is HLA-A*24:02. The experiment is described as above. To be noted: source organism: Rickettsia conorii.
[15] abbreviates: source organism: Vibrio cholerae V52.
The mark [16] stands for this setting: source organism: Influenza A virus (A/Harbin/1/1988(H1N2)).
Setting [17] is: source organism: Lassa virus Josiah.
The mark [18] stands for this setting: source organism: Toxoplasma gondii.
[19] abbreviates: source organism: Rickettsia conorii.
Setting [20] is: source organism: Vibrio vulnificus YJ016.

Consider AREIRDQGY, for which the equilibrium dissociation constant (Kd) with HLA-B*27:05 [1] (source organism: Escherichia coli 536) is at least 20000 nM.
With DIIWHLNDL, the Kd with HLA-A*26:01 [2] (setting [15]) was determined as 479 nM; with HLA-A*26:02 (setting [15]), 3 nM.
Consider EVHTWTEQY, for which the Kd with HLA-A*26:02 (source organism: dengue virus type 3) is at most 1 nM.
For GEINGEHVP, in the experiment with HLA-B*40:01 [3] (source organism: Escherichia coli B7A), the Kd was found to be 87.8 nM.
Take GRINYYWTL: the Kd in the experiment with HLA-C*07:02 (setting [16]) turned out to be 25 nM; in the experiment with HLA-B*27:05 [1] (setting [16]), 49 nM.
With LEALSPPLL, the Kd in the experiment with HLA-B*40:01 [3] (source organism: Escherichia coli E22) amounted to 5.5 nM.
LEVSFGSVI: the Kd in the experiment with HLA-B*40:01 [3] (source organism: Salmonella enterica subsp. enterica serovar Typhi) stood at 3.5 nM.
As to NHYLCLNCL, the dissociation constant (Kd) with HLA-B*39:01 [4] (setting [17]) was 26 nM; in the experiment with HLA-A*31:01 [5] (setting [17]), at least 20000 nM; with HLA-B*07:02 (setting [17]), at least 20000 nM; with HLA-A*01:01 (setting [17]) it was at least 20000 nM; with HLA-B*15:01 (setting [17]), at least 20000 nM; with HLA-B*15:09 (source organism: Mammarenavirus lassaense), 431 nM. The Kd with HLA-B*44:02 (setting [17]), with HLA-B*57:01, with HLA-A*02:01 (setting [17]), in the experiment with HLA-B*48:01, with HLA-B*40:01 [6] (setting [17]) and with HLA-B*27:05 [7] (setting [17]) was at least 20000 nM in each case. Also, the dissociation constant (Kd) with HLA-B*46:01, with HLA-A*03:01 [8] (setting [17]), with HLA-A*69:01 (setting [17]) and with HLA-B*58:01 (setting [17]) was at least 20000 nM throughout.
RLGKGYMF: the Kd in the experiment with HLA-A*24:02 [9] (source organism: Influenza A virus (A/Fort Monmouth/1/1947-mouse adapted(H1N1))) is 32.6 nM.
With RTWFYRTEF, the equilibrium dissociation constant (Kd) with HLA-C*14:02 (setting [18]) was 153 nM; in the experiment with HLA-C*06:02, at least 20000 nM; with HLA-C*15:02 (setting [18]), 127 nM; in the experiment with HLA-B*27:03, at least 20000 nM; in the experiment with HLA-A*02:19, at least 20000 nM; with HLA-B*39:01 [10] it was at least 20000 nM. Moreover, the Kd with HLA-A*31:01 [11] was 26.2 nM; with HLA-B*18:01 it was at least 20000 nM; with HLA-A*02:12, at least 20000 nM; in the experiment with HLA-A*26:01 [12], at least 20000 nM; with HLA-A*03:01 [13], at least 20000 nM.
For the sequence SSSGMDAYY, the Kd in the experiment with HLA-A*31:01 [5] (setting [19]) is at least 20000 nM; with HLA-B*08:01 it was at least 20000 nM; with HLA-B*07:02 (setting [19]), at least 20000 nM; with HLA-A*01:01 (setting [19]), 69.2 nM; with HLA-B*08:02, at least 20000 nM; in the experiment with HLA-B*15:01 (setting [19]), 159 nM. Further, the Kd is at least 20000 nM in the experiment with HLA-A*24:02 [14]; at least 20000 nM in the experiment with HLA-B*44:02 (setting [19]); 124 nM with HLA-A*26:01 [2] (source organism: Rickettsia sibirica 246); at least 20000 nM with HLA-A*02:01 (setting [19]); at least 20000 nM with HLA-B*40:01 [6] (setting [19]); at least 20000 nM with HLA-B*27:05 [7] (setting [19]). The Kd in the experiment with HLA-A*03:01 [8] (setting [19]) was at least 20000 nM; with HLA-A*69:01 (setting [19]), at least 20000 nM; with HLA-B*58:01 (setting [19]), 216 nM.
For the sequence TRVTNNVYL, the dissociation constant Kd is 19.8 nM with HLA-B*39:01 [4] (source organism: Camelpox virus M-96) and 4060 nM in the experiment with HLA-B*15:09 (source organism: Variola virus).
For the sequence YYGRWVHEF, the Kd with HLA-C*14:02 (setting [20]) was 25 nM; with HLA-C*07:02 (setting [20]), 46 nM; with HLA-C*15:02 (setting [20]) it was at least 20000 nM; with HLA-A*24:02 [9] (setting [20]), at most 0.1 nM.

The term Kd denotes the concentration at which binding is half-saturated.
